Measured values published in US20090221680, “Aptamers that bind thrombin with high affinity” (published 2009).

These binders were tested against thrombin (alpha-thrombin) (Homo sapiens, UniProt P00734;P00734 P00734:315-363,P00734:364-622) (assay: filter).
With UGCCTAGGTTGGGTAGGGTGGTGGCA (XNA, 2'-OMe 1-3,25,26, rest DNA) [ARC2839] the Kd was 580 pM. With AATGATTAGGTTGGGTAGGGTGGTATCATT (ssDNA) [ARC2826] the Kd was 770 pM. In the case of GCCTAGGTTGGGTAGGGTGGTGGC (XNA, 2'-OMe 1-3,22,24, rest DNA) [ARC2845], the Kd is reported as 860 pM. For UGCCTAGGTTGGGTAGGGTGGTGGCA (XNA, 2'-OMe 1-4,23,25,26, rest DNA) [ARC2838], the Kd was 770 pM. Binder ACTGCCTAGGTTGGGTAGGGTGGTGGCAGT (XNA, 2'-OMe G14, rest DNA) [ARC2626] has a Kd of 1590 pM. AAUGAUUAGGTTGGGTAGGGTGGUAUCAUU (XNA, 2'-OMe 1-7,24-30, rest DNA) [ARC2827] was tested, and the Kd was 4060 pM. With UGCCUAGGTTGGGTAGGGTGGUGGCA (XNA, 2'-OMe 1-5,22,23,25,26, rest DNA) [ARC2837] the Kd was 2610 pM. ACTGCCTAGGTTGGGTAGGGTGGTGGCAGT (XNA, 2'-OMe G19, rest DNA) [ARC2631] was tested, and the Kd was 4960 pM. In the case of ACTGCCTAGGTTGGGTAGGGTGGTGGCAGT (ssDNA, PS linkage between nt 17 and 18) [ARC2660], the Kd is reported as 230 pM. ACTGCCTAGGTTGGGTAGGGTGGTGGCAGT (XNA, 2'-OMe C2, rest DNA) [ARC2614] gave a Kd of 52 pM. ACTGCCTAGGTTGGGTAGGGTGGTGGCAGT (XNA, 2'-OMe G25, rest DNA) [ARC2637] showed a Kd of 118 pM. In the case of ACTGCCTAGGTTGGGTAGGGTGGTGGCAGT (ssDNA, PS linkage between nt 2 and 3) [ARC2645], the Kd is reported as 167 pM. ACUGCCTAGGTTGGGTAGGGTGGTGGCAGT (XNA, 2'-OMe U3, rest DNA) [ARC2615] showed a Kd of 94 pM. GCCUAGGTTGGGTAGGGTGGUGGC (XNA, 2'-OMe 1-4,21,22,24, rest DNA) [ARC2844] showed a Kd of 2650 pM. GATTAGGTTGGGTAGGGTGGTAUC (XNA, 2'-OMe 1-2,23-24, rest DNA) [ARC2850] gave a Kd of 330 pM. With ATGATTAGGTTGGGTAGGGTGGTATCAT (ssDNA) [ARC2833] the Kd was 2160 pM. For GCCTAGGTTGGGTAGGGTGGTGGC (XNA, 2'-OMe 1-2,24, rest DNA) [ARC2846], the Kd was 270 pM. Binder ACTGCCTAGGTTGGGTAGGGTGGTGGCAGT (XNA, 2'-OMe A8, rest DNA) [ARC2620] has a Kd of 7100 pM. Binder ACTGCCTAGGUTGGGTAGGGTGGTGGCAGT (XNA, 2'-OMe U11, rest DNA) [ARC2623] has a Kd of 746 pM. In the case of CTGCCTAGGTTGGGTAGGGTGGTGGCAG (ssDNA) [ARC2171], the Kd is reported as 221 pM. With ACTGCCTAGGTTGGGTAGGGTGGTGGCAGT (XNA, 2'-OMe G13, rest DNA) [ARC2625] the Kd was 568 pM. ACTGCCTAGGTTGGGTAGGGTGGTGGCAGT (XNA, 2'-OMe G22, rest DNA) [ARC2634] was tested, and the Kd was 549 pM. ACTGCCTAGGTTGGGTAGGGTGGTGGCAGT (XNA, 2'-OMe G26, rest DNA) [ARC2638] showed a Kd of 192 pM. Work on ACTGCCTAGGTTGGGTAGGGTGGTGGCAGT (XNA, 2'-OMe C6, rest DNA) [ARC2618] yielded a Kd of 121 pM. ACUGCCUAGGTTGGGTAGGGTGGUGGCAGU (XNA, 2'-OMe 1-7,24,25,27-30, rest DNA) [ARC2823] gave a Kd of 9100 pM. Binder ACTGCCTAGGTTGGGTAGGGTGGTGGCAGT (ssDNA, PS between T12 and G13) [ARC2655] has a Kd of 79 pM. Binder ACUGCCTAGGTTGGGTAGGGTGGTGGCAGU (XNA, 2'-OMe 1-6,25,27-30, rest DNA) [ARC2824] has a Kd of 730 pM. Work on GATTAGGTTGGGTAGGGTGGTATC (ssDNA) [ARC2847] yielded a Kd of 210 pM. With CUGCCTAGGTTGGGTAGGGTGGTGGCAG (XNA, 2'-OMe 1-5,24,26-28, rest DNA) [ARC2831] the Kd was 5120 pM. For ACTGCCTAGGTTGGGTAGGGTGGTGGCAGT (XNA, 2'-OMe G10, rest DNA) [ARC2622], the Kd was 38 pM. ACTGCCTAGGTTGGGTAGGGTGGTGGCAGU (XNA, 2'-OMe U30, rest DNA) [ARC2642] showed a Kd of 94 pM. Work on AUGATTAGGTTGGGTAGGGTGGTAUCAU (XNA, 2'-OMe 1-4,25-28, rest DNA) [ARC2836] yielded a Kd of 960 pM. For ACTGCCTAGGTTGGGTAGGGTGGUGGCAGT (XNA, 2'-OMe U24, rest DNA) [ARC2636], the Kd was 102 pM. In the case of ACTGCCTAGGTTGGGTAGGGTGGTGGCAGT (ssDNA, PS linkage between nt 14 and 15) [ARC2657], the Kd is reported as 219 pM. For GAUUAGGTTGGGTAGGGTGGUAUC (XNA, 2'-OMe 1-4,21-24, rest DNA) [ARC2848], the Kd was 2090 pM. Binder UGAUUAGGTTGGGTAGGGTGGUAUCA (XNA, 2'-OMe 1-5,22-26, rest DNA) [ARC2841] has a Kd of 3550 pM. With UGAUTAGGTTGGGTAGGGTGGTAUCA (XNA, 2'-OMe 1-4,23-26, rest DNA) [ARC2842] the Kd was 1060 pM. Binder ACTGCCTAGGTTGGGTAGGGTGGTGGCAGT (XNA, 2'-OMe G18, rest DNA) [ARC2630] has a Kd of 5240 pM. For GAUTAGGTTGGGTAGGGTGGTAUC (XNA, 2'-OMe 1-3,22-24, rest DNA) [ARC2849], the Kd was 200 pM. ACTGCCTAGGTTGGGTAGGGTGGTGGCAGT (XNA, 2'-OMe G4, rest DNA) [ARC2616] showed a Kd of 91 pM. Binder ACTGCCUAGGTTGGGTAGGGTGGTGGCAGT (XNA, 2'-OMe U7, rest DNA) [ARC2619] has a Kd of 215 pM. With ACTGCCTAGGTTGGGTAGGGTGGTGGCAGT (ssDNA, PS linkage between nt 18 and 19) [ARC2661] the Kd was 246 pM. CUGCCUAGGTTGGGTAGGGTGGUGGCAG (XNA, 2'-OMe 1-6,23,24,26-28, rest DNA) [ARC2830] gave a Kd of 15400 pM. ACTGCCTAGGTTGGGTAGGGTGGTGGCAGT (XNA, 2'-OMe G23, rest DNA) [ARC2635] was tested, and the Kd was 248 pM. For ACTGCCTAGGTTGGGTAGGGTGGTGGCAGT (ssDNA, PS between G10 and T11) [ARC2653], the Kd was 66 pM. ACTGCCTAGGTTGGGTAGGGTGGTGGCAGT (XNA, 2'-OMe A28, rest DNA) [ARC2640] was tested, and the Kd was 174 pM. For GCTGCCTAGGTTGGGTAGGGTGGTGGCAGC (ssDNA) [ARC2170], the Kd was 190 pM. For ACTGCCTAGGTTGGGTAGGGTGGTGGCAGT (ssDNA, PS between G23 and T24) [ARC2666], the Kd was 992 pM. Work on ACTGCCTAGGTTGGGTAGGGTGGTGGCAGT (XNA, 2'-OMe G9, rest DNA) [ARC2621] yielded a Kd of 1520 pM. ACTGCCTAGGTTGGGTAGGGTGGTGGCAGT (XNA, 2'-OMe A1, rest DNA) [ARC2613] showed a Kd of 173 pM. For ACUGCCTAGGTTGGGTAGGGTGGTGGCAGU (XNA, 2'-OMe 1-5,27-30, rest DNA) [ARC2825], the Kd was 1030 pM. Binder CUGCCTAGGTTGGGTAGGGTGGTGGCAG (XNA, 2'-OMe 1-4,26-28, rest DNA) [ARC2832] has a Kd of 1880 pM. For ACTGCCTAGGTTGGGTAGGGTGGTGGCAGT (XNA, 2'-OMe C27, rest DNA) [ARC2639], the Kd was 80 pM. In the case of AUGAUUAGGTTGGGTAGGGTGGUAUCAU (XNA, 2'-OMe 1-6,23-28, rest DNA) [ARC2834], the Kd is reported as 10300 pM. For AAUGATTAGGTTGGGTAGGGTGGTAUCAUU (XNA, 2'-OMe 1-5,26-30, rest DNA) [ARC2829], the Kd was 930 pM. With ACTGCCTAGGTTGGGTAGGGTGGTGGCAGT (ssDNA, PS linkage between nt 15 and 16) [ARC2658] the Kd was 253 pM. CCTCAGGGATGGTGTGGGTGGCTGAGG (ssDNA) [ARC1985] was tested, and the Kd was 5700 pM. In the case of ACTGCCTAGGTTGGGUAGGGTGGTGGCAGT (XNA, 2'-OMe U16, rest DNA) [ARC2628], the Kd is reported as 207 pM. AUGAUTAGGTTGGGTAGGGTGGTAUCAU (XNA, 2'-OMe 1-5,24-28, rest DNA) [ARC2835] showed a Kd of 1270 pM. Binder UGATTAGGTTGGGTAGGGTGGTAUCA (XNA, 2'-OMe 1-3,24-26, rest DNA) [ARC2843] has a Kd of 620 pM. ACTGCCTAGGTTGGGTAGGGTGGTGGCAGT (ssDNA, PS between T16 and A17) [ARC2659] gave a Kd of 452 pM. With AAUGAUTAGGTTGGGTAGGGTGGTAUCAUU (XNA, 2'-OMe 1-6,25-30, rest DNA) [ARC2828] the Kd was 330 pM. Work on ACTGCCTAGGTTGGGTAGGGTGGTGGCAGT (XNA, 2'-OMe G29, rest DNA) [ARC2641] yielded a Kd of 171 pM. In the case of TGATTAGGTTGGGTAGGGTGGTATCA (ssDNA) [ARC2840], the Kd is reported as 250 pM. Binder ACTGCCTAGGTTGGGTAGGGTGGTGGCAGT (ssDNA, PS linkage between nt 13 and 14) [ARC2656] has a Kd of 151 pM.
